Here are results for six molecules from patent US20240011005A1 (HUIDAGENE THERAPEUTICS, published 2024).

Series [1] concerns T1, OsCas12f1 (ME-B.3) (Oscillibacter sp.).
T1 sequence: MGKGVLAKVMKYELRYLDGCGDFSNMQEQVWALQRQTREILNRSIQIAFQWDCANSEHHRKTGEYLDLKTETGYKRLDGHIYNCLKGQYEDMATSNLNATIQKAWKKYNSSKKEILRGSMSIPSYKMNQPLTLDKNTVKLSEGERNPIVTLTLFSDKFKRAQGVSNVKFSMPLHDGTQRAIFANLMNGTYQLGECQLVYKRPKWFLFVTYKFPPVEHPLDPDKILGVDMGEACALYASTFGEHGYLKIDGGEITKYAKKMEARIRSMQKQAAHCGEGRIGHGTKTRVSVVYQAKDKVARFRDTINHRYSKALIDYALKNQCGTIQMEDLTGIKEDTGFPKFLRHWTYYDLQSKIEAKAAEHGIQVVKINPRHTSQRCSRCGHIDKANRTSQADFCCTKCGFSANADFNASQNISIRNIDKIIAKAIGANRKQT
Description: cell_activity.

The test system of series [2] is T2, RhCas12f1 (ME-A.1) (Ruminiclostridium herbifermentans).
T2 sequence: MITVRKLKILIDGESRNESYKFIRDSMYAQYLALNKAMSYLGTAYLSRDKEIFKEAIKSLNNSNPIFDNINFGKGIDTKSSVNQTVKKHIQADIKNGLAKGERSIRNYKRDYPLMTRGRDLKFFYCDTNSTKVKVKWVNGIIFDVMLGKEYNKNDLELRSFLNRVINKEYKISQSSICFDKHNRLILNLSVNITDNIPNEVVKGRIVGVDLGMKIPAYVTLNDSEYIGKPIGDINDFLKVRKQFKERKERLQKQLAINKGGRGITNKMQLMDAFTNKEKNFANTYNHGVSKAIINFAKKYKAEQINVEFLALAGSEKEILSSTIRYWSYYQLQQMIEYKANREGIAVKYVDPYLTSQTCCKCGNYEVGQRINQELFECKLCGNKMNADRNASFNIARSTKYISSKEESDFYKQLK
The experiment in a line: cell_activity.

The subject of series [3] is T3, RhCas12f1-L270R (enRhCas12f1) (Ruminiclostridium herbifermentans).
T3 sequence: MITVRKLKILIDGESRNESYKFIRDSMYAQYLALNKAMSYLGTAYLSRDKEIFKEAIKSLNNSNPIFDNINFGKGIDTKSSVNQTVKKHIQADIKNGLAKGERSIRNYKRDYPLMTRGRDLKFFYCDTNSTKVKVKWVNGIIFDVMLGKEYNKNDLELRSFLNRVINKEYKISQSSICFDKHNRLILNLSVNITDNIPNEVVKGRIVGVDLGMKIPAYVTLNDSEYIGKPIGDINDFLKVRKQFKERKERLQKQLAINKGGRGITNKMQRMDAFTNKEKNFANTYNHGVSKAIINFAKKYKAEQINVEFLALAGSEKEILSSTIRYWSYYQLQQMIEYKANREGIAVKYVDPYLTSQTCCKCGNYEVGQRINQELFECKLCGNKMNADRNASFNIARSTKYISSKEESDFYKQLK
The experiment in a line: cell_activity. The settings on record: PAM CCCA.

Series [4] has as its system T4, RhCas12f1-A273R A273R (Ruminiclostridium herbifermentans).
T4 sequence: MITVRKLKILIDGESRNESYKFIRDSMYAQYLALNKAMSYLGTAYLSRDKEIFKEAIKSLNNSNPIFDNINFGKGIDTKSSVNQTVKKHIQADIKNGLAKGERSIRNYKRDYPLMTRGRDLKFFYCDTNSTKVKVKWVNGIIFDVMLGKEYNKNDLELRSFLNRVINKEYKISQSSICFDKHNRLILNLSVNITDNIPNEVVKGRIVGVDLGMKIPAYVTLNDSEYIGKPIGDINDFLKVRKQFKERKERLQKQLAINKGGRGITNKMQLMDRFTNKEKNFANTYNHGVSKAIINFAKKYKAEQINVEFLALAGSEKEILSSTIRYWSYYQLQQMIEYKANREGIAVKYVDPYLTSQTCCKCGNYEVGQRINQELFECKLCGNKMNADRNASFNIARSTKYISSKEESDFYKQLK
The experiment in a line: cell_activity. To be noted: PAM CCCA.

The subject of series [5] is T5, RhCas12f1-A56R A56R (Ruminiclostridium herbifermentans).
T5 sequence: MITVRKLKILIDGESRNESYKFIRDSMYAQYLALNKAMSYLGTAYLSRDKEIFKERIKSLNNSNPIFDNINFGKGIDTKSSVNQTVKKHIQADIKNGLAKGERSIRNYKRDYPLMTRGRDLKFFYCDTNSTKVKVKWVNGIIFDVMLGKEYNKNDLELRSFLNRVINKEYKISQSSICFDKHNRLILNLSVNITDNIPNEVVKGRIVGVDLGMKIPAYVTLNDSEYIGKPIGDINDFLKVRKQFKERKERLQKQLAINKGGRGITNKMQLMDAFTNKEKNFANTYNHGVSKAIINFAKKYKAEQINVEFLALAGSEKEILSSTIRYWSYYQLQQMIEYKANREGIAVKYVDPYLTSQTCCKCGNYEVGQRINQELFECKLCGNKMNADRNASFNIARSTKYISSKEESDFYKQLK
The experiment in a line: cell_activity. The settings on record: PAM CCCA.

The test system of series [6] is T6, RhCas12f1-T131R T131R (Ruminiclostridium herbifermentans).
T6 sequence: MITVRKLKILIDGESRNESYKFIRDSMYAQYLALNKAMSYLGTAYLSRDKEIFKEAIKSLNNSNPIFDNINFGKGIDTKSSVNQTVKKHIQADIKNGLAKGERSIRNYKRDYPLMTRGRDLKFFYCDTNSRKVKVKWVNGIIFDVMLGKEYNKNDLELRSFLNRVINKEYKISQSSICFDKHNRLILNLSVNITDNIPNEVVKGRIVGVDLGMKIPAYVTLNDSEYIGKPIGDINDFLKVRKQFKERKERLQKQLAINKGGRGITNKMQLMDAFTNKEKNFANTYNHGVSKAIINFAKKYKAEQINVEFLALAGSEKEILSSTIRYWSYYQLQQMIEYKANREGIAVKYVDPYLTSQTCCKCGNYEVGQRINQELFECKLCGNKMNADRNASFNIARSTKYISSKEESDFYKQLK
Description: cell_activity. The settings on record: PAM CCCA.

For series [7], the system named is T7, RhCas12f1-I264R I264R (Ruminiclostridium herbifermentans).
T7 sequence: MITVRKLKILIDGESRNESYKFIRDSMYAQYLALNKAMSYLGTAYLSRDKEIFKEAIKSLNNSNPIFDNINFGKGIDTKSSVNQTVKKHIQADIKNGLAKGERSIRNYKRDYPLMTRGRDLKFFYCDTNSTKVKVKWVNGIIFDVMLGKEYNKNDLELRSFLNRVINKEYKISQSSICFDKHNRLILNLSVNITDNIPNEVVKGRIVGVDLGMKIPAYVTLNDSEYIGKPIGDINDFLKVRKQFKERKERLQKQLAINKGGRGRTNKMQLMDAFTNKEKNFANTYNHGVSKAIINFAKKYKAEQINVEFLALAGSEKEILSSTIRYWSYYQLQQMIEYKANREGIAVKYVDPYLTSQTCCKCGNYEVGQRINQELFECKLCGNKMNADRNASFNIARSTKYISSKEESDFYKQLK
Description: cell_activity. The settings on record: PAM CCCA.

The test system of series [8] is T8, RhCas12f1-Y125R Y125R (Ruminiclostridium herbifermentans).
T8 sequence: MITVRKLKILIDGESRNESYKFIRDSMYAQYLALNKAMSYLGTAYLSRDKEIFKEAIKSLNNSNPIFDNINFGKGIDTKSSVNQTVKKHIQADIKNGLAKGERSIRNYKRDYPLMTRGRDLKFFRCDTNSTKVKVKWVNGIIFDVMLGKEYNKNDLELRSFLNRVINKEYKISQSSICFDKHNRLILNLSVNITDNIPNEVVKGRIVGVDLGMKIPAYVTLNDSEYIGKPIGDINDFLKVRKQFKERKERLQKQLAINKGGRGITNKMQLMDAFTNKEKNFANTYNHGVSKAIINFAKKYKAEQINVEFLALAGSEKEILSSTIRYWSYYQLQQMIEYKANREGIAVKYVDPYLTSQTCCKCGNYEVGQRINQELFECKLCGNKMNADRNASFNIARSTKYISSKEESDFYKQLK
Description: cell_activity. To be noted: PAM CCCA.

Series [9] concerns T9, RhCas12f1-S130R S130R (Ruminiclostridium herbifermentans).
T9 sequence: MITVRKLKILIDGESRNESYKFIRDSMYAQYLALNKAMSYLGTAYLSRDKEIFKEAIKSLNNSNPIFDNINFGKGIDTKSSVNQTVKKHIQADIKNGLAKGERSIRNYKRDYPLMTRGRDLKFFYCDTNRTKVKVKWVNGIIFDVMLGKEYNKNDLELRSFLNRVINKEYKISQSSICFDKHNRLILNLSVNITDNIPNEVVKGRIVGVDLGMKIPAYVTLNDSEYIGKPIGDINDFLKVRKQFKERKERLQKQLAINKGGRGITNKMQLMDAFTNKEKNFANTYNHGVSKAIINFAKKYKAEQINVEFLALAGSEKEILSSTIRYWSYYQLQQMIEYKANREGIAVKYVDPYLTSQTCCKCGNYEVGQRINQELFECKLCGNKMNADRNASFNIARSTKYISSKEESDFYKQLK
Description: cell_activity. To be noted: PAM CCCA.

Series [10] deals with the molecule itself. The experiment in a line: size-exclusion chromatography (Superdex 200 Increase 10/300) of Cas12f1 RNP assembled with sgRNA; self-association (homodimer). (SEC sorts molecules by how far they enter the pores of the column.)

As for “AGGGACGACUUCCCGUCCCAAAAUCGAGACAGUAGCCGUAAAACUUUGAGUUUCAGAGUGGGCGACACACUCGAAAAGGUUAAGAUAUGCACAUAGUAAUCCGUGCAUGAGCCGCGAAAGCGGCUUGAAGGGGGUCUUCGAGAAGACCUUUUUAUUUUUUU / TTTCCCATTACAGTAGGAGCATACGGG / CCCGTATGCTCCTACTGTAATGGGAAA”, in [1] (non-targeting spacer), the activity was determined as 0.55 % GFP+.

For “ACGGUUGAUUUAGCAACCGAAGUCUGAGGGCAUGUAGAAAAAAGUAUAGGUAUAUACCAACAUACUUGCAUUGCCACUCGGAAAGGGUUAACCUUGGUCAUUGUGUUACCGACCAAGCAUUCCAGAAAUGGAAUGUAAAUGGGUCUUCGAGAAGACCUUUUUAUUUUUUU / CCCACCATTACAGTAGGAGCATAC / GTATGCTCCTACTGTAATGGTGGG”, the activity in series [2] (non-targeting spacer) was found to be 0.62 % GFP+.

Regarding “AGGGCCGACUUCCCGGCCCAAAAUCGAGACAGUAGCCGUAAAACUUUGAGUUUCAGAGUGGGCGACACACUCGAAAAGGUUAAGAUAUGCACAUAGUAAUCCGUGCAUGAGCCGCGAAAGCGGCUUGAAGGCCAUUACAGUAGGAGCAUACUUUUAUUUUUUU / TTTCCCATTACAGTAGGAGCATACGGG / CCCGTATGCTCCTACTGTAATGGGAAA”, the binding signal (fold vs WT scaffold) in series [1] (PAM TTTC) stood at 1.56.

“ACGGUUGAUUUAGCAACCGAAGUCUGAGGGCAUGUAGAAAAAAGUAUAGGUAUAUACCAACAUACUUGCAUUGCCACUCGGAAAGGGUUAACCUUGGUCAUUGUGUUACCGACCAAGCAUUCCAGAAAUGGAAUGUAAAUCCAUUACAGUAGGAGCAUACUUUUAUUUUUUU / CCCACCATTACAGTAGGAGCATAC / GTATGCTCCTACTGTAATGGTGGG”: the activity in [2] (PAM CCCA, HEK293T) worked out at 61.5 % GFP+; in series [3], 73.8 % GFP+; in [4] it was 75.3 % GFP+; in series [5] it was 73 % GFP+; in series [6], 77.2 % GFP+; in series [7] it was 75 % GFP+. Further, the activity in [8] is 73.3 % GFP+; in series [9] it was 76.1 % GFP+.

B1: RhCas12f1 (ME-A.1) (enzyme)
chain: MITVRKLKILIDGESRNESYKFIRDSMYAQYLALNKAMSYLGTAYLSRDKEIFKEAIKSLNNSNPIFDNINFGKGIDTKSSVNQTVKKHIQADIKNGLAKGERSIRNYKRDYPLMTRGRDLKFFYCDTNSTKVKVKWVNGIIFDVMLGKEYNKNDLELRSFLNRVINKEYKISQSSICFDKHNRLILNLSVNITDNIPNEVVKGRIVGVDLGMKIPAYVTLNDSEYIGKPIGDINDFLKVRKQFKERKERLQKQLAINKGGRGITNKMQLMDAFTNKEKNFANTYNHGVSKAIINFAKKYKAEQINVEFLALAGSEKEILSSTIRYWSYYQLQQMIEYKANREGIAVKYVDPYLTSQTCCKCGNYEVGQRINQELFECKLCGNKMNADRNASFNIARSTKYISSKEESDFYKQLK
notes: Purified recombinant protein used in size-exclusion chromatography; Entered as the single polypeptide; also called WTRhCas12f1; Cas12f1 from Ruminiclostridium herbifermentans; not shown: C-terminal 6xHis tag
B1: in [10], the binding result was “binds”.

B2: OsCas12f1 (ME-B.3) (enzyme)
chain: MGKGVLAKVMKYELRYLDGCGDFSNMQEQVWALQRQTREILNRSIQIAFQWDCANSEHHRKTGEYLDLKTETGYKRLDGHIYNCLKGQYEDMATSNLNATIQKAWKKYNSSKKEILRGSMSIPSYKMNQPLTLDKNTVKLSEGERNPIVTLTLFSDKFKRAQGVSNVKFSMPLHDGTQRAIFANLMNGTYQLGECQLVYKRPKWFLFVTYKFPPVEHPLDPDKILGVDMGEACALYASTFGEHGYLKIDGGEITKYAKKMEARIRSMQKQAAHCGEGRIGHGTKTRVSVVYQAKDKVARFRDTINHRYSKALIDYALKNQCGTIQMEDLTGIKEDTGFPKFLRHWTYYDLQSKIEAKAAEHGIQVVKINPRHTSQRCSRCGHIDKANRTSQADFCCTKCGFSANADFNASQNISIRNIDKIIAKAIGANRKQT
notes: Purified recombinant protein used in size-exclusion chromatography; Entered as the single polypeptide; also called WTOsCas12f1; Cas12f1 from Oscillibacter sp; not shown: C-terminal 6xHis tag
In the case of B2, the binding result in series [10] is recorded as “binds”.
